Here are results for 13 molecules from patent publication US20190328837A1 (Stanford University, published 2019).

In test [1] the target is T1, wild-type CNTFR-HIS (human, UniProt P26992 23-342).
T1 construct: also called wtCNTFR-HIS; HIS tagged CNTFR; not shown: HIS tag
T1 sequence: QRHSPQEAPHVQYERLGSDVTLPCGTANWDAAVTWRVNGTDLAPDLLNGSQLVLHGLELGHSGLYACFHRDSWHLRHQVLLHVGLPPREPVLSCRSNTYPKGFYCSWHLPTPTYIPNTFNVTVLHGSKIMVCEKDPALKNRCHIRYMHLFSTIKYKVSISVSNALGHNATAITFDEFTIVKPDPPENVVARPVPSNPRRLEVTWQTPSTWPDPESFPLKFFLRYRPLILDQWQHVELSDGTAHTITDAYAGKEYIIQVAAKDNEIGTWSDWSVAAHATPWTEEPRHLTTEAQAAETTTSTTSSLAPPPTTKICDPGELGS
Description: flow cytometry, yeast-displayed CLCF1 construct, soluble CNTFR titrated, apparent Kd. Background: In flow cytometry, cells or beads pass a laser one at a time.

The target in test [2] is T1, wild-type CNTFR-HIS. Description: yeast surface display, equilibrium titration with CNTFR-HIS, flow cytometry (apparent Kd). As to the method: (§1) Using equilibrium binding conditions and screened by flow cytometric sorting (FACS), high throughput screening of the CLCF1 library using wtCNTFR-HIS was performed to enrich variants showing increased CLCF1 binding. Expression signal was used to normalize CNTFR binding to distinguish high expressers from high affinity binders. Screening stringency was increased throughout sorting by decreasing the concentration of wtCNTFR-HIS incubated with the library. […] Thus a variant containing the three mutations (named FRR-CLCF1) was chosen for further characterization (FIG. 7).
(§2) Yeast displaying CLCF1 constructs were incubated with varying concentrations of CNTFR for 12 h at room temperature to reach equilibrium binding. This was followed by washing with BPBS and resuspension in PBSA with 1:500 ratio of chicken anti-c-Myc (Invitrogen) for 30 min at 4 C. Yeast were then washed and pelleted, and secondary labeling was performed on ice for 30 min using PBSA with 1:100 dilution of goat anti-chicken PE (Santa Cruz) and mouse anti-HIS Hilyte Fluor 488 (Anaspec). Then samples were washed and analyzed by flow cytometry using Accuri (BD Biosciences). Samples were analyzed on BD Bioscience software, and data were analyzed using FlowJo software. Kd values were determined by fitting to a four-parameter sigmoidal curve. Error bars represent the standard deviation of triplicate experiments.

In test [3] the target is T2, wild-type CNTFR-Fc (human, UniProt P26992 23-342).
T2 construct: also called wtCNTFR-Fc; not shown: Fc domain; captured with anti-mouse Fc antibody
T2 sequence: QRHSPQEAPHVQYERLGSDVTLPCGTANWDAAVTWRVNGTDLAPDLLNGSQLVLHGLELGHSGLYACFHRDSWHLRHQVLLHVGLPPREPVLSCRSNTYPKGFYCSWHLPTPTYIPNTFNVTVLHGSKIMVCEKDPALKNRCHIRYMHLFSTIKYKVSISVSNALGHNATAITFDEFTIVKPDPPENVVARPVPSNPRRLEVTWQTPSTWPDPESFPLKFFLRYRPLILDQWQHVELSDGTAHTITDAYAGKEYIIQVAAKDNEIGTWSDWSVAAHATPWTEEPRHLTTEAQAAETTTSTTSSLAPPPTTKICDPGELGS
Description: sandwich ELISA, soluble CLCF1 titrated against 2 nM CNTFR-Fc, anti-mouse-Fc capture, anti-CLCF1 detection. As to the method: (§3) The CLCF1 variants isolated from screening were cloned into the pET28b bacterial expression plasmid and expressed and purified. […] A sandwich ELISA was performed using an anti-mouse Fc antibody as a capturing agent for wtCNTFR-Fc, followed by an anti-CLCF1 antibody as a detection agent for the bound complex. […] ELISA was also used to measure binding interactions with the gp130 and LIFR beta receptors.
(§4) To measure the solution-phase binding interaction between the CLCF1 constructs and CNTFR, different concentrations of soluble, recombinant CLCF1 variants and wtCLCF1 were incubated with 2 nM CNTFR-Fc in BPBS for 12 h at room temperature. The mixture was then added to 96-well plates coated with anti-mouse-Fc antibody for 1 h followed by washing with BPBS twice. Subsequently, the wells were incubated with 1:1000 diluted anti-CLCF1 rabbit antibody for 2 h at room temperature then washed four times with BPBS. The wells were incubated with a 1:1000 diluted HRP conjugated anti-rabbit antibody for 2 h at room temperature, and washed four times with BPBS. 1-Step Ultra TMB ELISA was used for the readout, which was measured using a plate reader (Tecan).

The target in test [4] is T2, wild-type CNTFR-Fc. Description: cell-free ELISA, HIS-tagged soluble CLCF1 titrated against 2 nM CNTFR-Fc, anti-HIS capture, HRP anti-mouse detection. As to the method: 96-well plates were coated with 10 μg/mL of anti-HIS antibody overnight and blocked with 5% milk for 1 h. The plates were then washed twice with BPBS. Different concentrations of soluble constructs of HIS-tagged CLCF1 variants were incubated with 2 nM CNTFR-Fc in BPBS for 12 h at room temperature. The mixture was then added to 96-well plates coated with anti-HIS antibody for 1 h followed by washing with BPBS twice. Subsequently, the wells were incubated with 1:1000 diluted HRP conjugated anti-mouse antibody for 1 h at room temperature then washed four times with PBS. 1-Step Ultra TMB ELISA (Thermo Fisher Scientific) was used for the readout detected using a plate reader (Tecan).
On the technique in general: In an ELISA, binding on a coated surface is turned into a signal by an enzyme label.

For test [5], the target named is T2, wild-type CNTFR-Fc. Description: sandwich ELISA, soluble CLCF1 titrated against 2 nM CNTFR-Fc, apparent Kd. As for the experimental part:
as §3, §4

The target in test [6] is T1, wild-type CNTFR-HIS. Description: flow cytometry, yeast-displayed CLCF1 construct, soluble CNTFR titrated.
The target in test [7] is T1, wild-type CNTFR-HIS. Description: flow cytometry, yeast-displayed CLCF1 construct, soluble CNTFR-HIS titrated, anti-HIS Hilyte Fluor 488 detection. As to the method:
as §1, §2

B1: v2 (ligand)
CLCF1 variant displayed on yeast as Aga2p fusion with c-myc tag: LNRTGDPGPGPSIQKTYDLTRYLEHQLRSLAGTYLNYLGPPFNEPDFNPPRLGAETLPRATVDLEVWRSLNDKLRLTQNYEAYSHFLCYLRGLNRRAATAELRRSLAHFCTSLQGLLGSIAGVMAALGYPLPQPLPGTEPTWTPGPARSDFLQKMDDFWLLKELQTWLLRSAKDFNRLKKKMQPPAAAVTLHLGAHGF
For B1, the Kd in test [1] was determined as 0.22 nM.

B2: yeast-displayed CLCF1 variant L86F (ligand)
chain: LNRTGDPGPGPSIQKTYDLTRYLEHQLRSLAGTYLNYLGPPFNEPDFNPPRLGAETLPRATVDLEVWRSLNDKLRLTQNYEAYSHFLCYLRGLNRRAATAELRRSLAHFCTSLQGLLGSIAGVMAALGYPLPQPLPGTEPTWTPGPAHSDFLQKMDDFWLLKELQTWLWRSAKDFNRLKKKMQPPAAAVTLHLGAHGF
With B2, the Kd in test [2] stood at 3.1 nM.

B3: yeast-displayed CLCF1 variant H148R (ligand)
chain: LNRTGDPGPGPSIQKTYDLTRYLEHQLRSLAGTYLNYLGPPFNEPDFNPPRLGAETLPRATVDLEVWRSLNDKLRLTQNYEAYSHLLCYLRGLNRRAATAELRRSLAHFCTSLQGLLGSIAGVMAALGYPLPQPLPGTEPTWTPGPARSDFLQKMDDFWLLKELQTWLWRSAKDFNRLKKKMQPPAAAVTLHLGAHGF
Consider B3, for which the Kd in test [2] came out at 4.2 nM.

B4: recombinant soluble wild-type human CLCF1 (ligand)
chain: LNRTGDPGPGPSIQKTYDLTRYLEHQLRSLAGTYLNYLGPPFNEPDFNPPRLGAETLPRATVDLEVWRSLNDKLRLTQNYEAYSHLLCYLRGLNRQAATAELRRSLAHFCTSLQGLLGSIAGVMAALGYPLPQPLPGTEPTWTPGPAHSDFLQKMDDFWLLKELQTWLWRSAKDFNRLKKKMQPPAAAVTLHLGAHGF
notes: Expressed in E. coli from pET28b and purified from inclusion bodies by RP-HPLC; also called wtCLCF1; wild-type CLCF1
B4: the “EC50 (read off the curve)” value in test [3] and in test [4] was roughly 80 nM each time.

B5: v1 (ligand)
soluble CLCF1 variant: LNRTGDPGPGPSIQKTYDLTRYLEHQLRSLAGTYLNYLGPPFNEPDFNPPRLGAETLPRATVDLEVWRSLNDKLRLTQNYEAYSHLLCYLRGLNRRAATAELRRSLAHFCTSLQGLLGSIAGVMAALGYPLPQPLPGTEPTWTPGPAHSDFLQKMDDFWLLKELQTWLWRSAKDFNRLKKKMQPPAAAVTLHLGAHGF
As to B5, the Kd in test [5] came out at 6.6 nM. In addition, in test [3], the EC50 (read off the curve) – broadly, the concentration that produces a half-maximal response – is roughly 6 nM.

B6: v4 (ligand)
CLCF1 variant displayed on yeast as Aga2p fusion with c-myc tag: LNRTGDPGPGPSIQKTYDLTRYLEHQLRSLAGTYLNYLGPPFNEPDFNPPRLGAETLPRATVDLEVWRSLNDKLRLTQNYEAYSHFLCYLRGLNRRAATAELRRSLAHFCTSLQGLLGSIAGVMAALGYPLPQPLPGTEPTWTPGPARSDFLQKMDDFWLLKELQTWLLRSAKDFNRLKRKMQPPAAAVTLHLGAHGF
notes: The five consensus mutations without Y22C
As to B6, in test [6], the concentration giving a half-maximal response (EC50 (read off the curve)) is roughly 0.4 nM. In test [1], the Kd is 0.08 nM.

B7: yeast-displayed CLCF1 variant Q96R (ligand, not shown: large carriers; small tags and cut ends)
chain: LNRTGDPGPGPSIQKTYDLTRYLEHQLRSLAGTYLNYLGPPFNEPDFNPPRLGAETLPRATVDLEVWRSLNDKLRLTQNYEAYSHLLCYLRGLNRRAATAELRRSLAHFCTSLQGLLGSIAGVMAALGYPLPQPLPGTEPTWTPGPAHSDFLQKMDDFWLLKELQTWLWRSAKDFNRLKKKMQPPAAAVTLHLGAHGF
On to B7, for which the Kd in test [2] was found to be 7.9 nM. Moreover, the “EC50 (read off the curve)” value in test [7] is roughly 6 nM.

B8: v2 (ligand)
soluble CLCF1 variant: LNRTGDPGPGPSIQKTYDLTRYLEHQLRSLAGTYLNYLGPPFNEPDFNPPRLGAETLPRATVDLEVWRSLNDKLRLTQNYEAYSHFLCYLRGLNRRAATAELRRSLAHFCTSLQGLLGSIAGVMAALGYPLPQPLPGTEPTWTPGPAHSDFLQKMDDFWLLKELQTWLWRSAKDFNRLKKKMQPPAAAVTLHLGAHGF
B8: the Kd in test [5] was 2.3 nM. The “EC50 (read off the curve)” value in test [3] is roughly 2 nM.

B9: v3 (ligand)
CLCF1 variant displayed on yeast as Aga2p fusion with c-myc tag: LNRTGDPGPGPSIQKTYDLTRYLEHQLRSLAGTYLNYLGPPFNEPDFNPPRLGAETLPRATVDLEVWRSLNDKLRLTQNYEAYSHFLCYLRGLNRRAATAELRRSLAHFCTSLQGLLGSIAGVMAALGYPLPQPLPGTEPTWTPGPARSDFLQKMDDFWLLKELQTWLWRSAKDFNRLKRKMQPPAAAVTLHLGAHGF
On to B9, for which the Kd in test [1] came out at 0.28 nM.

B10: v5 (ligand)
CLCF1 variant displayed on yeast as Aga2p fusion with c-myc tag: LNRTGDPGPGPSIQKTYDLTRCLEHQLRSLAGTYLNYLGPPFNEPDFNPPRLGAETLPRATVDLEVWRSLNDKLRLTQNYEAYSHFLCYLRGLNRRAATAELRRSLAHFCTSLQGLLGSIAGVMAALGYPLPQPLPGTEPTWTPGPARSDFLQKMDDFWLLKELQTWLWRSAKDFNRLKKKMQPPAAAVTLHLGAHGF
B10: the Kd in test [1] was found to be 0.18 nM.

B11: yeast-displayed FRR-CLCF1 (L86F, Q96R, H148R) (ligand, not shown: large carriers; small tags and cut ends)
chain: LNRTGDPGPGPSIQKTYDLTRYLEHQLRSLAGTYLNYLGPPFNEPDFNPPRLGAETLPRATVDLEVWRSLNDKLRLTQNYEAYSHFLCYLRGLNRRAATAELRRSLAHFCTSLQGLLGSIAGVMAALGYPLPQPLPGTEPTWTPGPARSDFLQKMDDFWLLKELQTWLWRSAKDFNRLKKKMQPPAAAVTLHLGAHGF
notes: also called the variant with all three mutations
For the molecule B11, the concentration for a half-maximal effect (EC50 (read off the curve)) in test [6] and in test [7] was roughly 1 nM each time. The Kd in test [1] was determined as 0.83 nM.

B12: v3 (ligand)
soluble CLCF1 variant: LNRTGDPGPGPSIQKTYDLTRYLEHQLRSLAGTYLNYLGPPFNEPDFNPPRLGAETLPRATVDLEVWRSLNDKLRLTQNYEAYSHLLCYLRGLNRRAATAELRRSLAHFCTSLQGLLGSIAGVMAALGYPLPQPLPGTEPTWTPGPARSDFLQKMDDFWLLKELQTWLWRSAKDFNRLKKKMQPPAAAVTLHLGAHGF
Regarding B12, the Kd in test [5] stood at 2.5 nM. Further, the “EC50 (read off the curve)” value in test [3] was roughly 2 nM.

B13: yeast-displayed CLCF1 variant with Y22C, L86F, Q96R, H148R, W169L, K180R (ligand, not shown: large carriers; small tags and cut ends)
chain: LNRTGDPGPGPSIQKTYDLTRCLEHQLRSLAGTYLNYLGPPFNEPDFNPPRLGAETLPRATVDLEVWRSLNDKLRLTQNYEAYSHFLCYLRGLNRRAATAELRRSLAHFCTSLQGLLGSIAGVMAALGYPLPQPLPGTEPTWTPGPARSDFLQKMDDFWLLKELQTWLLRSAKDFNRLKRKMQPPAAAVTLHLGAHGF
notes: also called the resulting variant (five consensus mutations combined with Y22C)
Regarding B13, in test [6], the “EC50 (read off the curve)” value is roughly 0.1 nM. Also, in test [1], the Kd was 0.06 nM.
